Measured values taken from patent US9327008B2, “Cell-permeant peptide-based inhibitor of kinases” (Purdue Research Foundation, priority 2008, dated 2016).
Non-standard residues stand in square brackets, D forms with d. No end group written: not given here.

Columns and labels:
[1] = biological target: MK2 (Homo sapiens, UniProt P49137); assay: Omnia fluorescence-based kinase activity assay for MAPKAP-K2 (reaction velocity); assay type: biochemical; set-up: purchased Invitrogen; conditions: for MK2 inhibition (in words): PTD peptide alone, 12.5-100 μM
Procedure: The Omnia® Kinase Assay for MAPKAP-K2 kit (Invitrogen, Carlsbad, Calif.), was used to determine the reaction velocity for MK2 in the presence and absence of each of the peptides listed in Table 1. The kit contains a proprietary reaction buffer to which the following were added (final concentrations are given): 1 mM ATP, 0.2 mM DTT, 10 μM MAPKAP-K2 Sox-modified peptide substrate, 5 ng MK2, and the inhibitor peptide of interest (final volume of 50 μL). Human MK2 was purchased from Invitrogen. The reactions were performed at 30° C. in the wells of a low-protein-binding 96-well plate provided with the kit, and fluorescence readings (excitation=360 nm, emission=485 nm) were taken every 30 seconds for 20 minutes using a SpectraMax M5 Spectrophotometer (Molecular Devices). Reaction velocity was determined for each reaction well from the slope of a plot of relative fluorescence units versus time. Each inhibitor peptide was tested at least at four concentrations, 12.5, 25, 50 and […], in triplicate.
In Table 1, “a” represents that the results shown are for 100 μM for all peptides; “b” represents the percentage change in MK2 reaction velocity versus the unsubstituted peptide ([…]) [SEQ ID NO: 13] at a concentration of 100 μM; “c” represents the error reported as the standard deviation between three samples.

[2] = tested on: IL-1β induced IL-6 expression in mesothelial cells (CRL-9444); assay: IL-6 ELISA, mesothelial cells induced with IL-1β; assay type: cell-based; conditions: IL-1β 1 ng/ml; Rottlerin 1 μM
[3] = tested on: IL-6 expression induced by TNF-α in mesothelial cells (CRL-9444); assay: IL-6 ELISA, mesothelial cells induced with TNF-α; assay type: cell-based
Procedure: A cell line of pleural mesothelial cells (CRL-9444) was purchased from American Type Culture Collection. Cells were maintained and seeded in Medium 199 with Earle's BSS and 0.75 mM L-glutamine (Mediatech, Inc., Manassas, Va.), 1.25 g/L sodium bicarbonate (Sigma, St. Louis, Mo.), 3.3 nM epidermal growth factor (MBL International, Woburn, Mass.), 40 nM hydrocortisone (Sigma), 870 nM insulin (MBL International), 20 mM HEPES (Sigma), trace elements mixture B (Mediatech, Inc.), 10% fetal bovine serum (FBS) (Hyclone, Waltham, Mass.) and 1% penicillin/streptomycin (Mediatech, Inc.). Prior to treating cells with therapeutic inhibitor peptides, cells were allowed to acclimate in serum-free media consisting of only Medium 199 with Earle's BSS. L-glutamine, sodium bicarbonate, HEPES, trace elements mixture B, and penicillin/streptomycin (concentrations and suppliers as above) for 24 hours prior to treatment with cytokines and/or inhibitor peptides. […]
Standards (from 2 ng/ml to zero) and samples were prepared in diluent, immediately added to each well in triplicate, and incubated at room temperature for at least 2 hours on a plate shaker adjusted to 300 rpm. […] Hoeschst 33342 nuclear stain (Invitrogen) was used to quantify cell number on the basis of DNA quantity. […]
Results are presented as means±standard deviation. […] Significant differences were analyzed with Tukey HSD post hoc comparisons. […]

[4] = tested on: MK2; conditions: commercially available inhibitor; kinase not named at the place, used as inhibitor of MK2 (and PRAK); cited from earlier work
[5] = tested on: PKC; conditions: AIP 1 μM; cited from earlier work
[6] = tested on: PKA; conditions: AIP 1 μM; cited from earlier work
[7] = biological target: CaMKIV (Homo sapiens, UniProt Q16566); conditions: AIP 1 μM; cited from earlier work
[8] = tested on: Ca2+/calmodulin-dependent protein kinase II (CaMKII); conditions: cited from earlier work
[9] = 100 μM peptide, percentage change in MK2 reaction velocity versus unsubstituted KALNRQLGVAA at 100 μM, SD of three samples

MK2 (Homo sapiens, UniProt P49137), sequence (P49137 whole entry): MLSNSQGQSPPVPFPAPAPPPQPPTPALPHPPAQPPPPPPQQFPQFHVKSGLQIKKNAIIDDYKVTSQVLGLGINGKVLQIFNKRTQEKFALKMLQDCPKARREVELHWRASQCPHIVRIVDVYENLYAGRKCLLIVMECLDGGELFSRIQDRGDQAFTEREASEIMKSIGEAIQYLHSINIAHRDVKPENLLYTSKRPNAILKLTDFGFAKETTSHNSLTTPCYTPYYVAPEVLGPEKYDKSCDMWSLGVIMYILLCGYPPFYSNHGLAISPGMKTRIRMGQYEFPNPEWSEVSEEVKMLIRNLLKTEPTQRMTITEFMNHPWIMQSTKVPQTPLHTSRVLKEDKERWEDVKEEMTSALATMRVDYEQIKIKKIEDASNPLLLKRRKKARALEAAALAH
CaMKIV, sequence (Q16566 whole entry, species assumed): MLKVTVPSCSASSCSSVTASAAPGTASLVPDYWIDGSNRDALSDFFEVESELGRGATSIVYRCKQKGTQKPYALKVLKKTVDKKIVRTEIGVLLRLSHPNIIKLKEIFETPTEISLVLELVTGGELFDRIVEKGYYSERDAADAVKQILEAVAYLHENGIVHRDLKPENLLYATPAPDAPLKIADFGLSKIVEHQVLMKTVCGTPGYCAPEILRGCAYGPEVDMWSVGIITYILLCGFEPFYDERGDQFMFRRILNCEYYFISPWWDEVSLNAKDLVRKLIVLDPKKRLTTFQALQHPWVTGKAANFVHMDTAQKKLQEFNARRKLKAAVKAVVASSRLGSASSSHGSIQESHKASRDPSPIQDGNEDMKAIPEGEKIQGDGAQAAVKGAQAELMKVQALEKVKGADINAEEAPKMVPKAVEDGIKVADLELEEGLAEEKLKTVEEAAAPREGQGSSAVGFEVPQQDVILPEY

Molecule | percent change in MK2 reaction velocity versus unsubstituted peptide [1, 9] | further results
KALARQLGVAA [therapeutic domain, alanine substitution] | −61(2) % | 
KALNdRQLGVAA (KALN[dR]QLGVAA-NH2) [therapeutic domain, D-amino acid substitution] | +206(7) % | 
CC(=O)c1c(O)c(C)c(O)c(Cc2c(O)c3c(c(C(=O)/C=C/c4ccccc4)c2O)OC(C)(C)C=C3)c1O [Rottlerin] |  | IL-1β induced IL-6 expression (FIG. 7) [2]: significantly reduced; time at which significant reduction of IL-1β induced IL-6 expression occurs [2]: 12 h; level of expression of IL-6 induced by TNF-α (FIG. 8) ([3]; TNF-α 1 ng/ml): ineffective; level of expression of IL-6 induced by TNF-α (FIG. 9) ([3]; TNF-α 10 ng/ml, initially, from 6-12 hours): minimal reduction; IC50 [4]: 5 µM
YGRKKRRQRRR [protein transduction domain peptide, reference compound] | +44(17) % | inhibition of MK2 activity ([1]; 25 μM peptide): 48%; inhibition of MK2 activity ([1]; 100 μM peptide): 61%
KALNAQLGVAA [therapeutic domain, alanine substitution] | +258(14) % | 
KALNRQLGdVAA (KALNRQLG[dV]AA) [therapeutic domain, D-amino acid substitution] | +160(23) % | 
YARAAARQARA [synthetic protein transduction domain peptide PTD-4, reference compound] | +149(13) % | MK2 inhibition (in words) [1]: least affected
KKKALNRQLGVAA [therapeutic domain with two additional N-terminal Lys] | −9(8) % | 
KKALRRQEAVDAL [AIP, autocamtide-2 related inhibitory peptide] |  | PKC activity [5]: not affected; PKA activity [6]: not affected; CaMKIV activity [7]: not affected; CaMKII activity ([8]; AIP 1 μM): inhibited completely; IC50 [8]: 0.1 µM
WLRRIKA [cell penetrating peptide domain (non-functional)] |  | % of KALNRQLGVAA [SEQ ID NO: 13] Reaction Velocity (+VoSD) [1, 9]: 306%

Second part, led by results:

percent change in MK2 reaction velocity versus unsubstituted peptide [1, 9] | Molecule | further results
−83(4) % | WLRRIKAWLRRIKA [protein transduction domain peptide] | MK2 inhibition (in words) [1]: potently inhibited
+18(7) % | KALNRQAGVAA [therapeutic domain, alanine substitution] | 
0(5) % | KALNRQLGVA [therapeutic domain without C-terminal Ala] | 
−5(10) % | KALdNRQLGVAA (KAL[dN]RQLGVAA-NH2) [therapeutic domain, D-amino acid substitution] | 
+52(6) % | KAANRQLGVAA [therapeutic domain, alanine substitution] | 
−28(5) % | KALNRQLAVAA [therapeutic domain, alanine substitution] | 
+257(17) % | KALNRQdLGVAA (KALNRQ[dL]GVAA-NH2) [therapeutic domain, D-amino acid substitution] | 
46(7) % | KAdLNRQLGVAA (KA[dL]NRQLGVAA-NH2) [therapeutic domain, D-amino acid substitution] | 
+176(5) % | KALNRdQLGVAA (KALNR[dQ]LGVAA-NH2) [therapeutic domain, D-amino acid substitution] | 
+273(22) % | KALNRQLGAAA [therapeutic domain, alanine substitution] | 
+258(26) % | KALNRQLGVAA [unsubstituted therapeutic domain peptide] | inhibition of MK2 activity ([1]; 100 μM peptide): 73%
